Experimental data reported in patent publication US20110311550A1 (Scripps Research, published 2011).

B1: MAb AR2A (antibody, V domains shown)
VH: LEQSGAEMKKPGASLKVSCKTSGYTFDDYGVTWVRQAPGQGLEWMGWISAYSGNTFYARKFQGRVTMTTDPSTRTAYMELRSLRSDDTAVYFCARDRGLAINGVVFPYFGLDVWGQGTTVTVSS
VL: ELTQSPVSLPVTPGEPASISCRSSQSLLHSNGNHYLDWYLQKPGQSPQLLMYLGSNRASGVPDRFSGSGSGTDFTLKISRVEAEDVGVYYCMQGLQTPWTFGQGTKVEIKR
notes: also called IgG1 of Fab G
B2: MAb AR3D (antibody, V domains shown)
VH: LEQSGAEVKKPGSSVKVSCKASGDTFRSYVITWARQAPGQGLEWMGAIIPFFGTTNLAQKFQGRVTITADESTKTVYMDLSSLRSDDTAVYYCAKAGDLSVGGVLAGGVPHLRHFDPWGQGTLVTVSS
VL: ELTQSPGTLSLSPGERATLSCRAGQTVASNSLAWYQHKPGQAPRLLIYGASIRASGIPDRFSGSGSGTDFTLTISRLEPEDFAVYYCQQYGLSSTFGQGTRLEIKR
notes: also called IgG1 of Fab L4
B3: MAb AR3C (antibody, V domains shown)
VH: LEQSGAEVKKPGSSVKVSCETSGGTLDNYALNWVRQAPGQGLEWIGGVVPLFGTTRNAQKFQGRVTISDDKSTGTGHMELRSLRSEDTAVYYCVRSVTPRYCGGGFCYGEFDYWGQGTLVTVSS
VL: ELTQSPATLSVSPGERATLSCRASQSVSSNLAWYQQKPGQAPRLLIYGASTRATGIPARFSGSGSGTEFTLTVSRLEPEDSAVYFCQQYYRSPLTFGGGTKVEIKR
notes: also called IgG1 of Fab H3
B4: MAb AR1A (antibody, V domains shown)
VH: LEQSGAEVKKPGSSVKVSCRASGSPYSSYTITWVRQAPGQGLEWMGGIILMTGKANYAQKFQGRVTITADRATATAYMEMSSLTSDDTAIYYCARDPYVYAGDDVRSLSRWGQGTPVIVSS
VL: not shown
notes: also called IgG1 of Fab B2
B5: MAb AR1B (antibody, V domains shown)
VH: LESGGGLVQPGGSLRLSCEASGYYFSSFAMSWVRQTPGKGLEWVSSIAGGTLGRTSYRDSVKGRFTISRDNSKNTVFLHMNNLRPEDTAVYYCAKDPLLFAGGPNWFDHWGQGTLVTVSS
VL: not shown
notes: also called IgG1 of Fab D1

Experiments:
[1] = target: T1, vaccinia-expressed E1E2 complex, isolate HCV-1 (genotype 1a) (hepatitis C virus, isolate HCV-1, UniProt P26664 192-383; P26664 384-746); assay: competition ELISA on HCV-1 E1E2; competitor m31 (11/20)
[2] = target: T1, vaccinia-expressed E1E2 complex, …; assay: competition ELISA on HCV-1 E1E2; competitor m1 (AR1A)
[3] = target: T1, vaccinia-expressed E1E2 complex, …; assay: competition ELISA on HCV-1 E1E2; competitor m25 (9/27)
[4] = target: T2, E1E2 complex of HCV isolate H77 (genotype 1a), wild type (HCV isolate H77, UniProt P27958 192-383; P27958 384-746); assay: competition ELISA on H77 E1E2; competitor m40 (Fab N4)
[5] = target: T1, vaccinia-expressed E1E2 complex, …; assay: competition ELISA on HCV-1 E1E2; competitor m36 (A4)
[6] = target: T1, vaccinia-expressed E1E2 complex, …; assay: competition ELISA on HCV-1 E1E2; competitor m26 (AP33)
[7] = target: T2, E1E2 complex of HCV isolate H77 …; assay: competition ELISA on H77 E1E2; competitor m41 (Fab O1)
[8] = target: T2, E1E2 complex of HCV isolate H77 …; assay: competition ELISA on H77 E1E2; competitor m45 (Fab P3)
[9] = target: T1, vaccinia-expressed E1E2 complex, …; assay: competition ELISA on HCV-1 E1E2; competitor m19 (CBH-4B)
[10] = target: T1, vaccinia-expressed E1E2 complex, …; assay: competition ELISA on HCV-1 E1E2; competitor m6 (AR3C)
[11] = target: T1, vaccinia-expressed E1E2 complex, …; assay: competition ELISA on HCV-1 E1E2; competitor m28 (1/39)
[12] = target: T2, E1E2 complex of HCV isolate H77 …; assay: competition ELISA on H77 E1E2; competitor m38 (Fab N2)
[13] = target: T1, vaccinia-expressed E1E2 complex, …; assay: competition ELISA on HCV-1 E1E2; competitor m34 (6/53)
[14] = target: T2, E1E2 complex of HCV isolate H77 …; assay: competition ELISA on H77 E1E2; competitor m44 (Fab P2)
[15] = target: T1, vaccinia-expressed E1E2 complex, …; assay: competition ELISA on HCV-1 E1E2; competitor m20 (CBH-2)
[16] = target: T2, E1E2 complex of HCV isolate H77 …; assay: competition ELISA on H77 E1E2; competitor m42 (Fab P1)
[17] = target: T2, E1E2 complex of HCV isolate H77 …; assay: competition ELISA on H77 E1E2; competitor m43 (Fab P1a)
[18] = target: T1, vaccinia-expressed E1E2 complex, …; assay: competition ELISA on HCV-1 E1E2; competitor m7 (AR3D)
[19] = target: T1, vaccinia-expressed E1E2 complex, …; assay: competition ELISA on HCV-1 E1E2; competitor m33 (9/75)
[20] = target: T1, vaccinia-expressed E1E2 complex, …; assay: competition ELISA on HCV-1 E1E2; competitor m21 (CBH-5)
[21] = target: T1, vaccinia-expressed E1E2 complex, …; assay: competition ELISA on HCV-1 E1E2; competitor m24 (7/59)

Binder | % residual binding [1] [%] | % residual binding [2] [%] | % residual binding [3] [%] | % residual binding [4] [%] | % residual binding [5] [%] | % residual binding [6] [%] | % residual binding [7] [%] | % residual binding [8] [%] | % residual binding [9] [%] | % residual binding [10] [%] | % residual binding [11] [%] | % residual binding [12] [%] | % residual binding [13] [%] | % residual binding [14] [%] | % residual binding [15] [%] | % residual binding [16] [%] | % residual binding [17] [%] | % residual binding [18] [%] | % residual binding [19] [%] | % residual binding [20] [%] | other results
B1 | 84 | 76 | 67 | 74 | 92 | 63 | 88 | 72 | 87 | 86 | 90 | 86 | 92 | 82 | 93 | 82 | 82 | 75 | 82 | 91 | % residual binding [21]: 99%
B2 | 47 | 43 | 49 | 92 | 90 | 27 | 83 | 118 | 97 | 13 | 80 | 98 | 103 | 138 | 51 | 145 | 138 | 14 | 53 | 18 | 
B3 | 62 | 34 | 62 | 112 | 93 | 33 | 77 | 124 | 99 | 8 | 83 | 116 | 105 | 140 | 65 | 131 | 145 | 12 | 51 | 19 | % residual binding [21]: 95%
B4 | 84 | 15 | 74 | 94 | 97 | 102 | 76 | 85 | 102 | 37 | 84 | 82 | 89 | 91 | 83 | 86 | 88 | 54 | 24 | 54 | % residual binding [21]: 70%
B5 | 79 | 15 | 70 | 95 | 103 | 69 | 95 | 93 | 106 | 66 | 89 | 100 | 92 | 99 | 98 | 97 | 100 | 84 | 38 | 89 | % residual binding [21]: 77%
